Numbering of substitutions follows the chain as printed. Names may count otherwise. “Also recorded” adds a separate entry of the source.
How the values were obtained:
[1] = system: U2-OS cells; conditions: Bafilomycin A 1 μM, Chloroquine 50 μM as controls; cited from earlier work
[2] = Fluorescence dequenching liposome leakage (liposome disruption) assay; format: biochemical
Experimental: Liposomes composed of DOPC (1,2-dioleoyl-sn-glycero-3-phosphocholine), DOPC with 25% cholesterol (molar ratio to DOPC), 3:1 DOPC:POPS (1-palmitoyl-2-oleoyl-sn-glycero-3-phospho-L-serine), and 3:1 DOPC:POPS with 25% cholesterol were prepared identically to a final concentration of 5 mM total lipid as previously described (32); lipids from Avanti Polar Lipids. Lipids solubilized in chloroform were dried under nitrogen gas and stored under vacuum for a minimum of 2 hours to remove residual solvent. The dried lipid film was the resuspended in Tris buffer (10 mM Tris, 150 mM NaCl, and 0.02% NaN3 pH 8.0) containing 25 mM Sulforhodamine B (SRB) fluorophore (Sigma) and subjected to 10 sequential freeze thaw cycles in liquid nitrogen. Liposomes were extruded 29 times through 100 nm pore size polycarbonate filters (Avanti Polar Lipids) and purified from free fluorophore using a PD-10 gel filtration column (GE Healthcare) into storage buffer (10 mM Tris, 150 mM NaCl, and 0.02% NaN3 pH 8.0). Liposome size and homogeneity was analyzed by dynamic light scattering (DLS) using a Dynapro Nanostar™ DLS (Wyatt Technologies). On average liposome diameter ranged from 120-130 nm with low polydispersity. Liposomes were stored at 4° C. and used within 5 days of preparation.
Liposome disruption and content leakage was analyzed by fluorescence spectroscopy as previously described (32). […] The solution was rapidly acidified to the target pH by addition of a fixed volume of acidification buffer and incubated for 20 minutes. […] SRB fluorescence is independent of pH within the ranges used here. Finally. Triton X-100 (Sigma) was added to a final concentration of 1% to fully disrupt liposomes. Liposome disruption as indicated by content leakage and SRB dequenching was normalized using the formula [Fω−F(0)]/[F(Max)−F(0)] where F(0) is the average fluorescence intensity before acidification and F(Max) is the average fluorescence intensity ater addition of Triton X-100. All measurements were collected on a Varian Cary Eclipse spectrophotometer using an excitation/emission pairing of […] and 2.5 nm slit widths at 24° C. Any data plotted together was collected using the sum batch of liposomes.

[3] = Native mass spectrometry of pH-induced changes in oligomeric state; format: physicochemical; conditions: for pH response of oligomeric state (pH-induced disassembly): pH ~7 to ~3; for reversibility of disassembly: pH lowered with acetic acid, then raised by ammonia or buffer exchange; for cooperativity of the pH-induced transition: native MS at different pH values; for pH transition point of disassembly (pH set point, pH0): evaluated from pH 7 down to pH 3
Experimental: Samples were buffer exchanged twice into 200 mM ammonium acetate (NH4Ac; MilliporeSigma) using Micro Bio-Spin P-6 columns (Bio-Rad). Protein concentrations were determined by UV absorbance using a Nanodrop 2000c spectrophotometer (Thermo Fisher Scientific) and diluted to make up a 10-fold stock solution (50 μM and 16.7 μM monomer and trimer concentration, respectively). 1 μL of this solution was mixed with 9 μL 200 mM NH4Ac/50 mM triethylammonium acetate (TEAA; MilliporeSigma), adjusted with acetic acid (Fisher Scientific) to obtain the desired final pH and incubated on ice for 30 min. […] 5 μL samples were filled into an in-house pulled glass capillary and ionized by nESI at a monomer or a trimer concentration of 5 μM or 1.67 μM respectively. All pH titration data were acquired on an in-house modified SYNAPT® G2 HDMS (Waters Corporation) with a surface-induced dissociation (SID) device incorporated between a truncated trap traveling wave ion guide and the ion mobility cell (39). The following instrument parameters were used spray voltage 0.9-1.3 kV; sampling cone, 20 V; extraction cone, 2 V; source temperature, room temperature; trap gas flow, 4 mL/min; trap bins, 45V. The data were processed with MassLynx™ v4.1 and DriftScope™ v2.1. For relative quantification, charge state series were extracted from DriftScope™, and smoothed spectra (mean; window 20; number of smooths 20) were integrated.
Python scripts were written to generate theoretical models according Equation 1, and curve-fitting to native mass spectrometry data (FIGS. 1, 3, 5) according to Equation 2 by nonlinear least squares using curve fit from scipy.optimize. The free energy estimates for individual n, m, and l layers used in Equation 1 modeling were estimated by solving linear equations as follows: values for the free energy of folding for designs pRO-2 and variants were estimated from GdmCl denaturation experiments (FIG. 11); each of these designs have different numbers of n, m, and l layers, thus series of linear equations relating the number of each layer type to the total free energies of folding were solved to estimate dG values of the individual layers of each type.

[4] = target: the molecule itself; assay: native mass spectrometry; homotrimer
Experimental: Oligomeric state was assessed by size-exclusion chromatography (SEC) and native mass spectrometry (24).
(§1) Samples were buffer exchanged twice into 200 mM ammonium acetate (NH₄Ac; MilliporeSigma) using Micro Bio-Spin P-6 columns (Bio-Rad). Protein concentrations were determined by UV absorbance using a Nanodrop 2000c spectrophotometer (Thermo Fisher Scientific) and diluted to make up a 10-fold stock solution (50 μM and 16.7 μM monomer and trimer concentration, respectively). 1 μL of this solution was mixed with 9 μL 200 mM NH₄Ac/50 mM triethylammonium acetate (TEAA; MilliporeSigma), adjusted with acetic acid (Fisher Scientific) to obtain the desired final pH and incubated on ice for 30 min.

[5] = Circular dichroism: GdmCl chemical denaturation and temperature melts; conditions: CD at 222 nm, PBS pH 7.4 or Na2PO4-Citrate at lower pH
Source text: For low-pH experiments involving circular dichroism (CD), small-angle X-ray scattering (SAXS), and size exclusion chromatography (SEC), Na2PO4-Citrate buffer was used to ensure that a single buffer system could be used that was stable over the entire pH range to be tested. Buffers were made using established ratios of stock solutions of 0.2 M Na2PO4 and 0.1 M Citrate; final pH was adjusted using hydrochloric acid (HCl) or sodium hydroxide (NaOH) if needed.
CD wavelength scans (260 to 195 nm) and temperature melts (25 to 95° C.) were measured using a JASCO™ J-1500 or an AVIV™ model 420 CD spectrometer. Temperature melts monitored absorption signal at 222 nm and were carried out at a heating rate of 4° C./min; protein samples were at 0.25 mg/mL in either phosphate buffered saline (PBS) pH 7.4 or Na2PO4-Citrate at indicated pH values (see Buffers systems for varying pH). Guanidinium chloride (GdmCl) titrations were all performed on an AVIV 420 spectrometer with an automated titration apparatus using either PBS pH 7.4 or Na2PO4-Citrate buffers at indicated pH at room temperature, monitoring helical signal at 222 nm, using a protein concentration of 0.025 mg/mL in a 1 cm cuvette with stir bar. Each titration consisted of at least 30 evenly distributed concentration points with one minute mixing time for each step. Titrant solution consisted of the same concentration of protein in the same buffer system plus GdmCl; GdmCl concentration of starting solutions was determined by reactive index.

[6] = Size-exclusion chromatography (SEC); format: physicochemical; conditions: high concentration
Experimental: Cells were lysed by microfluidization in the presence of 1 mM PMSF. Lysates were clarified by centrifugation at 24,000 ref at 4° C. for at least 30 minutes. Proteins were purified by Immobilized metal affinity chromatography (IMAC): supernatant was applied to Ni-NTA (Qiagen) columns pre-equilibrated in lysis buffer. The column was washed twice with 15 column volumes (CV) of wash buffer (25 mM Tris pH 8.0 at room temperature, 300 mM NaCl, 40 mM Imidazole), followed by 3-5 CV of high-salt wash buffer (25 mM Tris pH 8.0 at room temperature, 1 M NaCl, 40 mM Imidazole) then an additional 15 CV of wash buffer. Protein was eluted with 250 mM Imidazole, and buffer-exchanged into 25 mM Tris pH 8.0 and 150 mM NaCl without imidazole for cleavage of the N-terminal hexahistidine tag by purified hexahistidine-tagged TEV protease (with the exception of design pRO-1, which was cleaved using restriction grade thrombin (EMD Millipore 69671-3) at room temperature for 4 hours or overnight, using a 1:3000 dilution of enzyme into sample solution). A second Ni-NTA step was used to remove hexahistidine tag, uncleaved sample and the hexahistidine-tagged TEV protease, and the cleaved proteins were then […], 150 mM NaCl, and 2% glycerol.

[7] = target: the molecule itself; assay: native mass spectrometry at the indicated pH
Experimental: as §1

[8] = target: T1, pRO-4 Chain B (heterodimer pRO-4), hexahistidine tag cleaved; assay: SEC and native mass spectrometry; heterodimer
T1 construct: The tag was removed for all pH experiments
T1 chain: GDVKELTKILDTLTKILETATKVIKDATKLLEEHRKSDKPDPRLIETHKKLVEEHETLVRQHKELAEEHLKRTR

Question: For `CO/C1=C\C(C)=C\[C@@H](C)[C@@H](O)[C@@H](C)C/C(C)=C/C=C/[C@H](OC)[C@@H]([C@@H](C)[C@@H](O)[C@H](C)[C@@]2(O)C[C@@H](O)[C@H](C)[C@@H](C(C)C)O2)OC1=O` [Bafilomycin A], which “effect on lysosomal pH (known drugs)” value [1] is on record?
Answer: known to neutralize lysosomal pH

Question: Which “effect on lysosomal pH (known drugs)” value [1] does the source give for `CCN(CC)CCCC(C)Nc1ccnc2cc(Cl)ccc12` (centres unmarked) [Chloroquine] here?
Answer: known to neutralize lysosomal pH

B1: pRO-3.1: pRO-3 variant, SEQ ID NO: 25-26 (protein)
chain 1: MGSHHHHHHGSGSENLYFQGSEALYELEKATRELKKATDELERATEELEKNPSEDALVEHNRLIAEHNKIIAEHNRIIAKVLK
chain 2: GSEALYELEKATRELKKATDELERATEELEKNPSEDALVEHNRLIAEHNKIIAEHNRIIAKVLK
Question: Which results are given for B1?
Answer: pH-dependent liposome disruption ([2]; 2.5 μM protein with respect to monomer, SRB leakage): did not exhibit any liposome disruption; liposome disruption activity at pH 4.75 ([2]; pH 4.75, 2.5 μM protein): does not; pH response of oligomeric state (pH-induced disassembly) ([3]; native MS): more pH-sensitive than design pRO-3; reversibility of disassembly [3]: re-association of monomers into trimer

B2: pRO-2.1 subunit (designed binder)
chain: SEYEIRKALEELKAALAELKRATASLRAITEELKKNPSEDALVEHNRAIVEHNAIIVEVLRIIAAVLELIVRAIK
notes: forms a homotrimer; Tag-free form
Question: Does B2 bind [4]?
Answer: binds

B3: pRO-2.5: pRO-2 variant, SEQ ID NO: 11-12 (protein)
chain 1: MGSHHHHHHGSGSENLYFQGSEYEIRKALEELKASTAELKRATASLRASTEELKKNPSEDALVENNRLIVEHNAIIVENNRIIAAVLELIVRAIK
chain 2: B2 chain with A15S, L16T, I29S, H45N, A48L, V59N, L60N
Question: With B3 as the molecule, how does the “folding stability by GdmCl denaturation” value [5] read?
Answer: lowest stability

Question: What about the “cooperativity of the pH-induced transition” value [3] of the same molecule?
Answer: least cooperative design tested

Question: And the “pH transition point of disassembly (pH set point, pH0)” value ([3]; native MS)?
Answer: ~4 pH

Question: What about the reversibility of disassembly [3] of the same molecule?
Answer: Re-association was induced

B4: pRO-2.5 subunit (designed binder)
chain: B2 chain with A15S, L16T, I29S, H45N, A48L, V59N, L60N
notes: forms a homotrimer; Tag-free form; also called PDB 6MSR
Question: Does B4 bind [4]?
Answer: binds

B5: pRO-1: designed homotrimer, SEQ ID NO: 13-14 (protein)
chain 1: MGSSHHHHHHSSGLVPRGSHMGTLKEVLERLEEVLRRHREVAREHQRWAREHEQWVRDDPNSAKWIAESTRWILETTDAISRTADVLAEAIRVLAESD
chain 2: GSHMGTLKEVLERLEEVLRRHREVAREHQRWAREHEQWVRDDPNSAKWIAESTRWILETTDAISRTADVLAEAIRVLAESD
Question: Which “oligomeric state by SEC” value [6] does the source give for B5 here?
Answer: trimeric at high concentration

Question: What about the “oligomeric state at pH 7 / neutral pH” value ([3]; native MS) of the same molecule?
Answer: primarily dimeric

B6: 2L6HC3_13: previous designed homotrimer lacking buried histidines, PDB ID 5J0H (protein)
chain: GTKYELRRALEELEKALRELKKSLDELERSLEELEKNPSEDALVENNRLNVENNKIIVEVLRIIAEVLKINAKSD
Question: Which results are given for B6?
Answer: folding stability by GdmCl denaturation [5]: no change; folding stability by GdmCl denaturation ([5]; listed as 2L6C3_13): no destabilization; pH response of oligomeric state (pH-induced disassembly) ([3]; native MS): no change in oligomeric state; also recorded: no significant pH response; pH response of oligomeric state (pH-induced disassembly) ([3]; native MS, listed as 2L6C3_13): not pH-sensitive

B7: pRO-2 I56V subunit (designed binder)
chain: GSEYEIRKALEELKAATAELKRATASLRAITEELKKNPSEDALVEHNRAIVEHNAIVVEHNRIIAAVLELIVRAIK
notes: forms a homotrimer; Tag-free form, and the entry already carries I56V
Question: Does B7 bind [7]?
Answer: binds

B8: pRO-2 A54M: pRO-2 mutant, SEQ ID NO: 19-20 (protein)
chain 1: B3 chain 1 with S35A, S49I, N65H, L68A, A74M, N79H
chain 2: B7 chain with A55M, V57I
Question: Which “folding stability by GdmCl denaturation” value [5] does the source give for B8 here?
Answer: increases stability

Question: And the “cooperativity of the pH-induced transition” value [3]?
Answer: Neither of the mutations substantially affect the cooperativity

Question: What about the “pH transition point of disassembly (pH set point, pH0)” value ([3]; native MS) of the same molecule?
Answer: decreases the transition pH

B9: pRO-4 Chain A (heterodimer pRO-4) (designed binder)
chain: MDEEDHLKKLKTHLEKLERHLKLLEDHAKKLEDILKERPEDSAVKESIDELRRSIELVRESIEIFRQSVEEEE
Question: Does B9 bind [8]?
Answer: binds
